Data reported in patent US20180222961A1 (IMMATICS BIOTECHNOLOGIES, published 2018).

target: T1, HLA-B*07:02 (human); assay: UV-exchange b2m ELISA; exchange-yield grade
T1 construct: also called peptide-receptive MHC molecules
Text: Candidate peptides for T cell based therapies according to the present invention were further tested for their MHC binding capacity (affinity). The individual peptide-MHC complexes were produced by UV-ligand exchange, where a UV-sensitive peptide is cleaved upon UV-irradiation, and exchanged with the peptide of interest as analyzed. Only peptide candidates that can effectively bind and stabilize the peptide-receptive MHC molecules prevent dissociation of the MHC complexes. To determine the yield of the exchange reaction, an ELISA was performed based on the detection of the light chain (β2m) of stabilized MHC complexes. The assay was performed as generally described in Rodenko et al. (Rodenko et al., 2006).
96 well MAXISorp plates (NUNC) were coated over night with 2 ug/ml streptavidin in PBS at room temperature, washed 4× and blocked for 1 h at 37° C. in 2% BSA containing blocking buffer. Refolded HLA-A*02:01/MLA-001 monomers served as standards, covering the range of 15-500 ng/ml. Peptide-MHC monomers of the UV-exchange reaction were diluted 100-fold in blocking buffer. Samples were incubated for 1 h at 37° C., washed four times, incubated with 2 ug/ml HRP conjugated anti-β2m for 1 h at 37° C., washed again and detected with TMB solution that is stopped with […]. Absorption was measured at 450 nm. Candidate peptides that show a high exchange yield (preferably higher than 50%, most preferred higher than 75%) are generally preferred for a generation and production of antibodies or fragments thereof, and/or T cell receptors or fragments thereof, as they show sufficient avidity to the MHC molecules and prevent dissociation of the MHC complexes.

Binder | peptide exchange yield
SPNKGTLSV | 50 to 75%
SPTFHLTL | 50 to 75%
LPRGPLASLL | 50 to 75%
FPDNQRPAL | 50 to 75%
APAAWLRSA | 20 to 50%
RPLFQKSSM | 50 to 75%
SPHPVTALLTL | 50 to 75%
RPAPFEVVF | 50 to 75%
KPGTSYRVTL | 50 to 75%
RVRSRISNL | 50 to 75%
SPASRSISL | 50 to 75%
APLPRPGAVL | 50 to 75%
RPAMNYDKL | 20 to 50%
VPNQSSESL | 50 to 75%
YPGFPQSQY | 20 to 50%
KPSESIYSAL | 50 to 75%
LPSDSHFKITF | 50 to 75%
VPVYILLDEM | 20 to 50%
KPGPEDKL | 20 to 50%
APRAGSQVV | 50 to 75%
YPRTITPGM | 50 to 75%
APRPASSL | 50 to 75%
FPRLVGPDF | 50 to 75%
APTEDLKAL | 50 to 75%
IPGPAQSTI | 20 to 50%
MPNLPSTTSL | 50 to 75%
RPIVPGPLL | 50 to 75%
RVRSTISSL | 50 to 75%
SPFSAEEANSL | 50 to 75%
SPGATSRGTL | 50 to 75%
